Consider one molecule from paper PMC6677171, “Subunit interactions and arrangements in the fission yeast Mis16–Mis18–Mis19 complex” (Life Science Alliance, 2019).

This assay deals with Mis16 (S. pombe), full length, affinity tag removed (S. pombe), O94244. The assay is described as follows: ITC; iTC200, 30°C; 50 mM Tris pH 7.5, 100 mM NaCl, 4% glycerol, 0.5 TCEP; 26 μM protein in the cell, 260 μM peptide injected. Background: In ITC the heat of successive injections is recorded.
Sequence of Mis16 (S. pombe), full length, affinity tag removed (S. pombe), O94244 (O94244 whole entry): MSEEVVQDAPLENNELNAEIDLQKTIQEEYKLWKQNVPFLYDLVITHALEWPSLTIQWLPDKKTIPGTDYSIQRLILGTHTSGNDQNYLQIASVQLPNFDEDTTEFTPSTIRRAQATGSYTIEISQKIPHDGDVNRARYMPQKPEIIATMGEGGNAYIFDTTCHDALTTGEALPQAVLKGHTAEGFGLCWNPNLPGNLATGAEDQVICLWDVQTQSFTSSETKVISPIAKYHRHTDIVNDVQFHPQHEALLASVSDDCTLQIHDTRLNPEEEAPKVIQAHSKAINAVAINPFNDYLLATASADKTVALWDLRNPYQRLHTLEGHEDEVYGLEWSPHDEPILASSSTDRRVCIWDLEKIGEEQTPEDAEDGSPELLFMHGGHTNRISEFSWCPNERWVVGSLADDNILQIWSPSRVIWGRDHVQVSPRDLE

LHNRAFLRRNVRAVKM (modifications not checked) [Mis19 C-terminal peptide (residues 97–112) with V101 mutated, O42995 97-112]: the dissociation constant Kd – broadly, the equilibrium constant for the complex coming apart – came to 51 nM.
